# According to patent US20260209320A1 (ALCHEMAB THERAPEUTICS, published 2026):
# T1: Peptide 1 (human, cyno)
# T1 peptide: QQQQQQQQPPPPPPP
# T2: Peptide 2 (human, cyno)
# T2 peptide: QQQQQQQPPPPPPPP
# T3: Peptide 3 (human, cyno)
# T3 peptide: QQQQQQPPPPPPPPP
# T4: Peptide 6 (human)
# T4 peptide: QQPPPPPPPPPPPQL
# T5: Peptide 7 (human)
# T5 peptide: PQAQPLLPQPQPPPP
# T6: Peptide 10 (human)
# T6 peptide: QPLLPQPQPPPPPPP
# T7: Peptide 13 (human)
# T7 peptide: LPQPQPPPPPPPPPP
# T8: Peptide 14 (human, cyno)
# T8 peptide: PQPQPPPPPPPPPPG
# T9: Peptide 15 (human, cyno)
# T9 peptide: QPQPPPPPPPPPPGP
# T10: Peptide 16 (human)
# T10 peptide: PQPPPPPPPPPPGPA
# T11: Peptide 17 (human)
# T11 peptide: QPPPPPPPPPPGPAV
# T12: Epitope 1 (human, cyno)
# T12 peptide: QQQQPPPPPPPPPPP
# T13: Peptide 4 (human, cyno)
# T13 peptide: QQQQQPPPPPPPPPP
# T14: Peptide 18 (cyno)
# T14 peptide: QQQPPPPPPPPPPPP
# T15: Peptide 20 (cyno)
# T15 peptide: QAQPMLPQPQPPPPP
# T16: Peptide 21 (cyno)
# T16 peptide: AQPMLPQPQPPPPPP
# T17: Peptide 22 (cyno)
# T17 peptide: QPMLPQPQPPPPPPR
# T18: Peptide 41 (mouse)
# T18 peptide: PPQPPPQGQPPPPPP
# T19: Peptide 23 (cyno)
# T19 peptide: QQQQQQQQQQPPPPP
# Experiments:
# Peptide 1 [1] = target: T1, Peptide 1; assay: peptide microarray; Sp H; IgG 1 µg/ml
# Peptide 2 [2] = target: T2, Peptide 2; assay: peptide microarray; Sp H; IgG 1 µg/ml
# Peptide 3 [3] = target: T3, Peptide 3; assay: peptide microarray; Sp H; IgG 1 µg/ml
# Peptide 6 [4] = target: T4, Peptide 6; assay: peptide microarray; Sp H; IgG 1 µg/ml
# Peptide 7 = target: T5, Peptide 7; assay: peptide microarray; Sp H; IgG 1 µg/ml
# Peptide 10 = target: T6, Peptide 10; assay: peptide microarray; Sp H; IgG 1 µg/ml
# Peptide 13 = target: T7, Peptide 13; assay: peptide microarray; Sp H; IgG 1 µg/ml
# Peptide 14 [5] = target: T8, Peptide 14; assay: peptide microarray; Sp H; IgG 1 µg/ml
# Peptide 15 [6] = target: T9, Peptide 15; assay: peptide microarray; Sp H; IgG 1 µg/ml
# Peptide 16 = target: T10, Peptide 16; assay: peptide microarray; Sp H; IgG 1 µg/ml
# Peptide 17 = target: T11, Peptide 17; assay: peptide microarray; Sp H; IgG 1 µg/ml
# Epitope 1 = target: T12, Epitope 1; assay: peptide microarray; Sp C1; IgG 1 µg/ml
# Peptide 1 [7] = target: T1, Peptide 1; assay: peptide microarray; Sp C1; IgG 1 µg/ml
# Peptide 2 [8] = target: T2, Peptide 2; assay: peptide microarray; Sp C1; IgG 1 µg/ml
# Peptide 3 [9] = target: T3, Peptide 3; assay: peptide microarray; Sp C1; IgG 1 µg/ml
# Peptide 4 = target: T13, Peptide 4; assay: peptide microarray; Sp C1; IgG 1 µg/ml
# Peptide 18 = target: T14, Peptide 18; assay: peptide microarray; Sp C1; IgG 1 µg/ml
# Peptide 20 [10] = target: T15, Peptide 20; assay: peptide microarray; Sp C1; IgG 1 µg/ml
# Peptide 21 = target: T16, Peptide 21; assay: peptide microarray; Sp C1; IgG 1 µg/ml
# Peptide 22 = target: T17, Peptide 22; assay: peptide microarray; Sp C1; IgG 1 µg/ml
# Peptide 14 [11] = target: T8, Peptide 14; assay: peptide microarray; Sp C2; IgG 1 µg/ml
# Peptide 15 [12] = target: T9, Peptide 15; assay: peptide microarray; Sp C2; IgG 1 µg/ml
# Peptide 6 [13] = target: T4, Peptide 6; assay: peptide microarray; Sp H; IgG 10 µg/ml
# Peptide 14 [14] = target: T8, Peptide 14; assay: peptide microarray; Sp H; IgG 10 µg/ml
# Peptide 15 [15] = target: T9, Peptide 15; assay: peptide microarray; Sp H; IgG 10 µg/ml
# Peptide 20 [16] = target: T15, Peptide 20; assay: peptide microarray; Sp C1; IgG 10 µg/ml
# Peptide 14 [17] = target: T8, Peptide 14; assay: peptide microarray; Sp C2; IgG 10 µg/ml
# Peptide 15 [18] = target: T9, Peptide 15; assay: peptide microarray; Sp C2; IgG 10 µg/ml
# Peptide 41 [19] = target: T18, Peptide 41; assay: peptide microarray; Sp M; IgG 1 µg/ml
# Peptide 23 [20] = target: T19, Peptide 23; assay: peptide microarray; Sp C2; IgG 1 µg/ml
# Peptide 41 [21] = target: T18, Peptide 41; assay: peptide microarray; Sp M; IgG 10 µg/ml
# Peptide 23 [22] = target: T19, Peptide 23; assay: peptide microarray; Sp C2; IgG 10 µg/ml
Binder,corrected fluorescence intensity (Peptide 1 [1]),corrected fluorescence intensity (Peptide 2 [2]),corrected fluorescence intensity (Peptide 3 [3]),corrected fluorescence intensity (Peptide 7),corrected fluorescence intensity (Peptide 10),corrected fluorescence intensity (Peptide 13),corrected fluorescence intensity (Peptide 16),corrected fluorescence intensity (Peptide 17),corrected fluorescence intensity (Epitope 1),corrected fluorescence intensity (Peptide 1 [7]),corrected fluorescence intensity (Peptide 2 [8]),corrected fluorescence intensity (Peptide 3 [9]),corrected fluorescence intensity (Peptide 4),corrected fluorescence intensity (Peptide 18),corrected fluorescence intensity (Peptide 21),corrected fluorescence intensity (Peptide 22),other results
"ATL_0005335 (antibody, V domains shown, human IgG1; also called ATL_5335) VH: EVQLVESGGGLVKPGGSLRLSCAASGFTFNKAWMNWVRQAPGKGLEWVGRIKSGIDGGTTDYAAPVQGRFTISRDDSKNTVYLQMNSLNTEDTAVYYCIPPPYYYYYGLDVWGQGTTVTVSS VL: QSALTQPASVSGSPGQSITISCTGTSSDIGSYNLVSWYQQHPGNAPKPLIYEGSKRPSGVSARFSGSKSGNTASLTISGLQPEDEADYYCSSYAGFNTLVFGGGTKVTVL",0,417,626,0,845,1130,77.5,0,391,381,667,520,536,474,443,82,corrected fluorescence intensity (Peptide 6 [4]): 0; corrected fluorescence intensity (Peptide 14 [5]): 335; corrected fluorescence intensity (Peptide 15 [6]): 234; corrected fluorescence intensity (Peptide 20 [10]): 187; corrected fluorescence intensity (Peptide 14 [11]): 0; corrected fluorescence intensity (Peptide 15 [12]): 0; corrected fluorescence intensity (Peptide 6 [13]): 176; corrected fluorescence intensity (Peptide 14 [14]): 1630; corrected fluorescence intensity (Peptide 15 [15]): 1130; corrected fluorescence intensity (Peptide 20 [16]): 1190; corrected fluorescence intensity (Peptide 14 [17]): 0; corrected fluorescence intensity (Peptide 15 [18]): 0
"ATL_0005331 (antibody, V domains shown, human IgG1; also called ATL_5331; Human IgG1 ATL_0005331) VH: EVQLVESGGGLVKPGGSLRLSCAASGFTFNKAWMNWVRQAPGKGLEWVGRIKSGIDGGTTDYAAPVQGRFTISRDDSKNTVYLQMNSLNTEDTAVYYCIPPPYYYYYGLDVWGQGTTVTVSS VL: QSALTQPRSVSGSPGQSITISCTGTSSDVGSYNLVSWFQQHPGKAPKLIIYEVNKRPSGVPDRFSGSKSGNTASLTVSGLQAEDEADYYCGSYAGTNNVFGTGTKLTVL",131,197,276,0,274,373,90.2,85.5,195,0,118,206,136,137,182,91,corrected fluorescence intensity (Peptide 41 [19]): 55; corrected fluorescence intensity (Peptide 23 [20]): 0; corrected fluorescence intensity (Peptide 41 [21]): 197; corrected fluorescence intensity (Peptide 23 [22]): 148
